We go through 1 substance from patent US5858646.

A value given as a limit tells only on which side of the number the result lay.

The test deals with uncleaved ~95 kD pol gene product of recombinant AcNPV-HIVYKpol (HIV-1 pol polypeptide lacking the first 91 amino acids at the NH2-terminus of the HIV-pol protease) (HIV-1). Description: ELISA on plates coated with pol, no primary antibody, read at 450 nm. For orientation: In an ELISA, binding on a coated surface is turned into a signal by an enzyme label.

Consider “goat anti-human Ig linked to horse radish peroxidase (Tago Diagnostics, cat 2393) (tool reagent)”, for which the OD was less than 0.1 OD.
